According to patent US20130196373:
Like-named read-outs stand apart in the source and are kept apart here.

How the values were obtained:
[1] = system: TALEN 101238 (Xanthomonas (engineered)?); assay: cell_activity; conditions: paired with 101236, K562
[2] = system: TALEN 101238a (Xanthomonas (engineered)?); assay: cell_activity; conditions: paired with 101236, K562; SELEX preference improved
[3] = system: TALEN 101238b (Xanthomonas (engineered)?); assay: cell_activity; conditions: paired with 101236, K562; SELEX preference improved
[4] = system: TALEN 101238c (Xanthomonas (engineered)?); assay: cell_activity; conditions: paired with 101236, K562; SELEX preference improved
[5] = system: TALEN 101238d (Xanthomonas (engineered)?); assay: cell_activity; conditions: paired with 101236, K562
[6] = system: TALEN 101238e (Xanthomonas (engineered)?); assay: cell_activity; conditions: paired with 101236, K562; SELEX not interpretable
[7] = system: TALE 101042-BfiI (Xanthomonas/Bacillus (engineered)?); assay: cell_activity; conditions: paired with 101047-BfiI, K562
[8] = system: TALE 101043-BfiI (Xanthomonas/Bacillus (engineered)?); assay: cell_activity; conditions: paired with 101047-BfiI, K562
[9] = system: TALE TL_CTTC RD-RG-KG-AD (Xanthomonas (engineered)?); conditions: ELISA; site composed
[10] = system: TALE TL_CTTC RD-RG-MG-ND (Xanthomonas (engineered)?); conditions: ELISA; site composed
[11] = system: TALE TL_CTTC RD-RG-RG-KD (Xanthomonas (engineered)?); conditions: ELISA; site composed
[12] = system: TALE 101047-BfiI (Xanthomonas/Bacillus (engineered)?); assay: cell_activity; conditions: paired with 101043-BfiI, K562
[13] = system: TALEN 101047 (R) (Xanthomonas (engineered)?); assay: cell_activity; conditions: paired with 101041, K562
[14] = system: TALEN 102109 (R*) (Xanthomonas (engineered)?); assay: cell_activity; conditions: paired with 102204, K562
[15] = system: TALEN 3-1 (Xanthomonas (engineered)?); assay: cell_activity; conditions: paired with 101041
[16] = system: TALEN 4-1 (Xanthomonas (engineered)?); assay: cell_activity; conditions: paired with 101041
[17] = system: TALEN Condition 3 lane 8 (Xanthomonas (engineered)?); assay: cell_activity; conditions: paired with 101041
[18] = system: TALEN Condition 4 lane 64 (Xanthomonas (engineered)?); assay: cell_activity; conditions: paired with 101041
[19] = system: TALEN 101664 (R551-C17-KKR) (Xanthomonas (engineered)?); assay: cell_activity; conditions: paired with 101662, 12 bp gap, K562
[20] = system: TALE TL_TCAT AA-KD-KI-MG (Xanthomonas (engineered)?); conditions: ELISA
[21] = system: TALE TL_TCAT QG-AD-HI-KG (Xanthomonas (engineered)?); conditions: ELISA
[22] = system: TALE TL_TCAT QG-KD-KI-AA (Xanthomonas (engineered)?); conditions: ELISA
[23] = system: TALE TL_TCAT canonical (Xanthomonas (engineered)?); conditions: ELISA, AFU 204
[24] = system: TALEN 1-1 (Xanthomonas (engineered)?); assay: cell_activity; conditions: paired with 101047
[25] = system: TALEN 101041 (L) (Xanthomonas (engineered)?); assay: cell_activity; conditions: paired with 101047, K562
[26] = system: TALEN 101662 (L538-C17-ELD) (Xanthomonas (engineered)?); assay: cell_activity; conditions: paired with 101664, 12 bp gap, K562
[27] = system: TALEN 102204 (L*) (Xanthomonas (engineered)?); assay: cell_activity; conditions: paired with 102109, K562
[28] = system: TALEN 102297 (L538NC-C17-ELD) (Xanthomonas (engineered)?); assay: cell_activity; conditions: paired with 101664, 12 bp gap, K562
[29] = system: TALEN 2-1 (Xanthomonas (engineered)?); assay: cell_activity; conditions: paired with 101047
[30] = system: TALEN Condition 1 lane 40 (Xanthomonas (engineered)?); assay: cell_activity; conditions: paired with 101047
[31] = system: TALEN Condition 2 lane 45 (Xanthomonas (engineered)?); assay: cell_activity; conditions: paired with 101047
[32] = system: TALE 101048-BfiI (Xanthomonas/Bacillus (engineered)?); assay: cell_activity; conditions: paired with 101043-BfiI, K562
[33] = system: CXA TALE KAK S11K (repeat 5) (Xanthomonas (engineered)?)
[34] = system: CXA TALE KKD S11K (repeat 5) (Xanthomonas (engineered)?)
[35] = system: CXA TALE KRD S11K (repeat 5) (Xanthomonas (engineered)?)
[36] = system: CXA TALE KRI S11K (repeat 5) (Xanthomonas (engineered)?)
[37] = system: CXA TALE NRD S11N (repeat 5) (Xanthomonas (engineered)?)
[38] = system: CXA TALE NRI S11N (repeat 5) (Xanthomonas (engineered)?)
[39] = system: CXA TALE SAK (Xanthomonas (engineered)?)
[40] = system: CXA TALE SHD (Xanthomonas (engineered)?)
[41] = system: CXA TALE SKD (Xanthomonas (engineered)?)
[42] = system: CXA TALE SNG (Xanthomonas (engineered)?)
[43] = system: CXA TALE SNI (pos 11-13) (Xanthomonas (engineered)?)
[44] = system: CXA TALE SNN (Xanthomonas (engineered)?)
[45] = system: CXA TALE SRD (Xanthomonas (engineered)?)
[46] = system: CXA TALE SRI (Xanthomonas (engineered)?)
[47] = system: TALE TR_ATAC CI-VA-HI-ND (Xanthomonas (engineered)?); conditions: ELISA; site composed
[48] = system: TALE TR_ATAC HI-VA-CI-ND (Xanthomonas (engineered)?); conditions: ELISA; site composed
[49] = system: TALE TR_ATAC KI-MG-HI-RD (Xanthomonas (engineered)?); conditions: ELISA; site composed
[50] = system: TALE TR_ATTG CI-KG-QG-HN (Xanthomonas (engineered)?); conditions: ELISA; site composed
[51] = system: TALE TR_ATTG CI-MG-KG-HN (Xanthomonas (engineered)?); conditions: ELISA; site composed
[52] = system: TALE TR_ATTG HI-RG-MG-HN (Xanthomonas (engineered)?); conditions: ELISA; site composed
[53] = system: TALE TR_CAGA AD-HI-GN-HI (Xanthomonas (engineered)?); conditions: ELISA; site composed
[54] = system: TALE TR_CAGA KD-HI-FN-HI (Xanthomonas (engineered)?); conditions: ELISA; site composed
[55] = system: TALE TR_CAGA ND-HI-HN-KI (Xanthomonas (engineered)?); conditions: ELISA; site composed
[56] = system: TALE TR_CAGC ND-KI-FN-AD (Xanthomonas (engineered)?); conditions: ELISA
[57] = system: TALE TR_CAGC RD-HI-GN-ND (Xanthomonas (engineered)?); conditions: ELISA
[58] = system: TALE TR_CAGC RD-HI-HN-ND (Xanthomonas (engineered)?); conditions: ELISA
[59] = system: TALE TR_CAGC canonical (Xanthomonas (engineered)?); conditions: ELISA, AFU 649
[60] = system: TALE TR_CCTG AD-RD-HG-HN (Xanthomonas (engineered)?); conditions: ELISA; site composed
[61] = system: TALE TR_CCTG ND-KD-HG-HN (Xanthomonas (engineered)?); conditions: ELISA; site composed
[62] = system: TALE TR_CCTG RD-ND-AA-HN (Xanthomonas (engineered)?); conditions: ELISA; site composed
[63] = system: TALE TR_CCTG canonical (Xanthomonas (engineered)?); conditions: ELISA, AFU 1020; site composed
[64] = system: TALE TR_TACA KG-KI-KD-CI (Xanthomonas (engineered)?); conditions: ELISA; site composed
[65] = system: TALE TR_TACA RG-HI-RD-KI (Xanthomonas (engineered)?); conditions: ELISA; full site composed from anchor + subsite
[66] = system: TALE TR_TACA VA-CI-ND-HI (Xanthomonas (engineered)?); conditions: ELISA; full site composed from anchor + subsite
[67] = system: TALE TR_TACA canonical (Xanthomonas (engineered)?); conditions: ELISA, AFU 779; site composed

PITX3 target of 101238
activity [1]: 34 % indels | activity [2]: 54 % indels | activity [3]: 50 % indels | activity [4]: 44 % indels | activity [5]: 43 % indels | activity [6]: 22 % indels

TACACCTGCAGCTCT (double strand) [101042 half-site]
activity [7]: 0.11 % indels

TACACCTGCAGCTCTCAT (double strand) [101043 half-site]
activity [8]: 0.75 % indels

TCTTCATCCT (double strand) [TL CTTC target]
binding signal (fold vs canonical) [9]: 8.22 | binding signal (fold vs canonical) [10]: 0.16 | binding signal (fold vs canonical) [11]: 13.8

TCTTCCAGAATTGATACT (double strand) [CCR5 R557 half-site]
activity [12]: 0.75 % indels | activity [13]: 50.6 % indels | activity [14]: 65.2 % indels | activity [15]: 56.3 % NHEJ | activity [16]: 59.5 % NHEJ | activity [17]: 0 % NHEJ | activity [18]: 0 % NHEJ

TGATACTGACTGT (double strand) [CCR5 R551 half-site]
activity [19]: 59 % NHEJ

TTCATATCCT (double strand) [TL TCAT target]
binding signal (fold vs canonical) [20]: 0.05 | binding signal (fold vs canonical) [21]: 2.26 | binding signal (fold vs canonical) [22]: 2.34 | binding signal (fold vs canonical) [23]: 1

TTCATTACACCTGCAGCT (double strand) [CCR5 L538 half-site]
activity [24]: 36.6 % NHEJ | activity [25]: 50.6 % indels | activity [26]: 59 % NHEJ | activity [27]: 65.2 % indels | activity [28]: 56.2 % NHEJ | activity [29]: 64.1 % NHEJ | activity [30]: 0 % NHEJ | activity [31]: 0 % NHEJ

TTCTTCCAGAATTGAT (double strand) [101048 half-site]
activity [32]: 0.27 % indels

TTGACAATCCT (double strand) [CAA target]
binding signal (normalized ELISA) [33]: 0.05 | binding signal (normalized ELISA) [34]: 0.25 | binding signal (normalized ELISA) [35]: 0.48 | binding signal (normalized ELISA) [36]: 0.74 | binding signal (normalized ELISA) [37]: 0.07 | binding signal (normalized ELISA) [38]: 0 | binding signal (normalized ELISA) [39]: 0.01 | binding signal (normalized ELISA) [40]: 0.38 | binding signal (normalized ELISA) [41]: 0.14 | binding signal (normalized ELISA) [42]: 0.63 | binding signal (normalized ELISA) ([43]; flanking RVDs inferred from anchors): 0.96 | binding signal (normalized ELISA) [44]: 1.12 | binding signal (normalized ELISA) [45]: 0.26 | binding signal (normalized ELISA) [46]: 0.51

TTGACATACT (double strand) [TR ATAC target]
binding signal (fold vs canonical) [47]: 1.4 | binding signal (fold vs canonical) [48]: 1.36 | binding signal (fold vs canonical) [49]: 0.47

TTGACATTGT (double strand) [TR ATTG target]
binding signal (fold vs canonical) [50]: 1.12 | binding signal (fold vs canonical) [51]: 1.22 | binding signal (fold vs canonical) [52]: 0

TTGACCAGAT (double strand) [TR CAGA target]
binding signal (fold vs canonical) [53]: 0.04 | binding signal (fold vs canonical) [54]: 1.3 | binding signal (fold vs canonical) [55]: 1.28

TTGACCAGCT (double strand) [TR CAGC target]
binding signal (fold vs canonical) [56]: 0 | binding signal (fold vs canonical) [57]: 0.4 | binding signal (fold vs canonical) [58]: 1.52 | binding signal (fold vs canonical) [59]: 1

TTGACCATCCT (double strand) [CCA target]
binding signal (normalized ELISA) [34]: 0.64 | binding signal (normalized ELISA) [35]: 0.85 | binding signal (normalized ELISA) [36]: 0.28 | binding signal (normalized ELISA) [37]: 0.53 | binding signal (normalized ELISA) [40]: 1.29 | binding signal (normalized ELISA) [41]: 0.5 | binding signal (normalized ELISA) [42]: 0.15 | binding signal (normalized ELISA) [43]: 0.06 | binding signal (normalized ELISA) [44]: 0.01 | binding signal (normalized ELISA) [45]: 0.91 | binding signal (normalized ELISA) [46]: 0.04

TTGACCCTGT (double strand) [TR CCTG target]
binding signal (fold vs canonical) [60]: 1.3 | binding signal (fold vs canonical) [61]: 1.07 | binding signal (fold vs canonical) [62]: 0.02 | binding signal (fold vs canonical) [63]: 1

TTGACGATCCT (double strand) [CGA target]
binding signal (normalized ELISA) [33]: 0.28 | binding signal (normalized ELISA) [39]: 0.21 | binding signal (normalized ELISA) [40]: 0.01 | binding signal (normalized ELISA) [42]: 0.11 | binding signal (normalized ELISA) [43]: 0.01 | binding signal (normalized ELISA) [44]: 0.76

TTGACTACAT (double strand) [TR TACA target]
binding signal (fold vs canonical) [64]: 0.48 | binding signal (fold vs canonical) [65]: 1.62 | binding signal (fold vs canonical) [66]: 1.57 | binding signal (fold vs canonical) [67]: 1

TTGACTATCCT (double strand) [CTA target]
binding signal (normalized ELISA) [40]: 0.12 | binding signal (normalized ELISA) [42]: 0.99 | binding signal (normalized ELISA) [43]: 0.02 | binding signal (normalized ELISA) [44]: 0.03
